Experimental data taken from patent US12552866B2, “Internalizing binding molecules targeting receptors involved in cell proliferation or in cell differentiation” (LinXis B.V., priority 2019, dated 2026).
Like-named read-outs stand apart in the source and are kept apart here.

Experiments:
PDGFRB ECD = target: T1, PDGFRB ECD (Homo sapiens, UniProt P09619); experiment: Competition ELISA with SP02P and SP26P on PDGFRB ECD; format: binding; settings: versus SPO2P
T1 construct: assay with SP02P and SP26P on PDGFRB ECD
Method: Competition ELISAs were carried out to determine whether the hPDGFRB specific binders (FIG. 5) and rPDGFRB specific binders (FIG. 6) recognize distinct epitopes on hPDGFRB or rPDGFRB, respectively. The hPDGFRB binding VHHs SPO2P, SP05P, SP12P and SP14P and the rPDGFRB binder SP26P were conjugated to IRDye800CW (VHH-IRDye800CW, conjugation method as described in example 9.2) and each conjugated VHH was mixed with unconjugated competitor in trifold serial dilutions and incubated on immobilized […]. Two VHHs share (part of) the same epitope when the fluorescence signal of the VHH-IRDye800CW decreases upon increasing concentration of unconjugated VHH. Furthermore, using a similar method as described in section 5.1, binding epitope competition between the hPDGFRB binding VHH SPO2P and rPDGFRB binding VHH

[1] = target: rat PDGFRB ectodomain (ECD); experiment: Affinity (KD in nM) | PDGFRβ ECD
Method: (§1) Table printed on a drawing sheet, FIG. 6
Head of the field: Affinity (KD in nM) | PDGFRβ ECD
(§2) The patent's description of the figure: FIG. 6. Amino acid sequence of rat PDGFRB VHHs (CDRs underlined). Affinities are measured on rat PDGFRB ectodomain (ECD) and squamous cell carcinoma cells transfected with rat PDGFRB receptor (SCC-rPDGFRB). Data of the competition assays is included to categorize the VHHs in different epitope groups.
(§3) First copying reader's note: Each sequence is printed over two lines and joined here by a blank; the underlining that marks the CDRs is not reproduced.
Where the first naming reader finds the target: description_of_the_figure: Affinities are measured on rat PDGFRB ectodomain (ECD) and squamous cell carcinoma cells transfected with rat PDGFRB receptor (SCC-rPDGFRB).

rat PDGFRB receptor = target: T2, rat PDGFRB receptor (Rattus norvegicus, UniProt Q05030); experiment: Affinity (KD in nM) | SCC-rPDGFRβ cells
T2 construct: GFP; expressed in transfected cells; host or cells: SCC VII cells
Method: as §1
Head of the field: Affinity (KD in nM) | SCC-rPDGFRβ cells
as §2, §3
Where the first naming reader finds the target: description_of_the_figure: squamous cell carcinoma cells transfected with rat PDGFRB receptor (SCC-rPDGFRB)

hIGF2R-ECD = target: T3, hIGF2R-ECD (Homo sapiens, UniProt P11717); experiment: Binding assay / titration ELISA on recombinant hIGF2R-ECD; settings: KD+SEM, n=2, read-out: calculated affinity (KD)
T3 construct: recombinant human extracellular domain of IGF2R (hIGF2R-ECD)
Method: The 15 unique hIGF2R binders (Example 1.1, FIG. 2) were produced and purified as described in examples 2 and 3. The apparent affinities were determined with binding assays on hIGF2R-ECD. Briefly, three-fold serial VHH dilutions, starting from 1 μM, were added onto hIGF2R-ECD coated plates. After 2 hours of incubation, plates were washed and bound VHH was detected using a VHH-specific IgG antibody, followed by an IRD800CW-conjugated IgG-specific antibody. […] VHH 13F11 was also produced with a C-terminal free cysteine and conjugated using maleimide chemistry to Alexa Fluor 647 (13F11-A647 in FIG. 8A, conjugation method as described in example 9.2). A titration ELISA (direct read out at 647 nm) with this construct was carried out on hIGF2R-ECD to determine whether the affinity was affected after site directed conjugation (FIG. 8B). The KD and Bmax were calculated in Graphpad (version 8.3), using one-site specific binding analysis (FIG. 8C).
Based on their high affinity and binding to non-overlapping receptor epitopes, VHHs 13F11 and 13E8 were selected for the design of biparatopic and bivalent VHH constructs. Two VHHs were fused with a flexible linker, consisting of three Gly-Gly-Gly-Gly-Ser repeats (FIG. 8A). The sequences were codon optimized for expression in E. coli and obtained as synthesized DNA fragments from GeneArt. The DNA fragments encoding VHHs were cloned into a vector pET28-based vector introducing a C-terminal free cysteine for site-directed conjugation and His6 tag for IMAC purification (FIG. 8A). The constructs were produced and purified as described in example 3. The constructs were conjugated to Alexa Fluor 647 (conjugation method as described in example 9.2) and titration ELISAs on recombinant hIGF2R-ECD (as described in example 4.1) were performed to determine the KD and Bmax (calculated in Graphpad (version 8.3), using one-site specific binding analysis) (FIG. 8C).
Next, 13F11-13E8 was genetically re-engineered to include an in vivo half-life extender in the form of an albumin binding domain (ABD) as described by Johansson et al (Structure, specificity, and mode of interaction for bacterial albumin-binding modules, J. Biol. Chem. 2002 (277): 8114-8120) and subsequently produced and purified as described in Example 3. Subsequently, 13F11-13E8-ABD was conjugated to IRDye800CW (F11E8-ABD-IRD800, conjugation method as described in example 9.2) and the binding affinities of the biparatopic VHH as well as the ABD unit was determined. […] The binding affinity (KD) of F11-E8-ABD-IRD800 to rat serum albumin (RSA) was 30 nM and to mouse serum albumin (MSA) and human serum albumin (HSA) the binding affinity was approximately 200 nM.

[2] = system: A549 cells (IGF2R positive); experiment: Internalization in A549 cells (acid wash, confocal); format: cell-based, human; settings: 25 nM VHH conjugated to Alexa Fluor 647
Method: (§4) To assess if monovalent 13F11 and biparatopic 13F11-13E8 are internalized in the hIGF2R expressing cells, A549 cells (FIG. 16A) and NIH 3T3 2.2 cells transiently transfected with hIGF2R (FIG. 16B) were incubated with 25 nM VHH conjugated to Alexa Fluor 647 (conjugation method as described in example 9.2). A Mouse anti-IGF2R mAb was included to detect IGF2R expression on the hIGF2R transfected cells NIH 3T3 2.2 (FIG. 16B, right column), the mAb was detected with a goat anti-mouse mAb conjugated to Alexa Fluor 555. Additionally, mock transfected NIH 3T3 2.2 cells were incubated with 13F11 and 13F11-13E8 (FIG. 16C). […]
(§5) (FIG. 10D). […] The rate of internalization (endocytic rate constant, ke) of biparatopic constructs 13F11-13E8 and 13E8-13F11 was determined with a kinetic internalization assay on SCC-VII cells transfected with hIGF2R and rIGF2R. […] Subsequently, cells were washed with cold PBS and the non-internalized VHH construct (bound fraction) was separated from the internalized construct (internalized fraction) using an acid-wash, as described above, after which the fluorescence of both fractions were measured. […] Internalization was also observed in rIGF2R expressing SCC cells as a clear increase in fluorescence over time can be shown in FIG. 17 (ke around 0.7 min-1).

[3] = system: NIH 3T3 2.2 cells transiently transfected with hIGF2R; experiment: Internalization in NIH 3T3 2.2 cells transiently transfected with hIGF2R; format: cell-based, human; settings: 25 nM VHH conjugated to Alexa Fluor 647
Method: as §4, §5

[4] = system: mock transfected NIH 3T3 2.2 cells; experiment: Internalization in mock transfected NIH 3T3 2.2 cells; format: cell-based; settings: 25 nM VHH conjugated to Alexa Fluor 647
Method: as §4, §5

[5] = system: primary activated rat hepatic stellate cells (HSCs); experiment: Binding (staining) to primary activated rat hepatic stellate cells; format: cell-based; settings: 50 nM, HSCs from BDL rat, 6 days in culture
Method: The cross-reactivity of F11-E8-ABD was further evaluated in binding experiments to primary activated rat hepatic stellate cells (HSCs) by conjugating the construct to Alexa Fluor 488 (FE-A-A488, conjugation method as described in example 9.2). Activated HSCs were obtained from a perfused liver of a cirrhotic bile duct ligated (BDL) rat, the HSCs were isolated using density gradient centrifugation. Cells were kept in culture for 6 days to allow complete activation and then stained with 50 nM FE-A-A488. Activation was determined by an additional staining with alpha-smooth muscle actin (a-SMA).

rPDGFRB = target: T4, rPDGFRB (Rattus norvegicus, UniProt Q05030); experiment: Binding assay on SCC VII cells transfected with rPDGFRB; settings: IRDye800CW conjugate, read-out: binding affinity (KD) to rPDGFRB
T4 construct: GFP; expressed in transfected cells; host or cells: SCC VII cells
Method: (§6) Based on their high affinity and binding to non-overlapping hPDGRB epitopes, VHHs SPO2P, SP12P SP14P and SP26P were selected for the design of biparatopic VHH constructs and produced in a similar way as described in example 6.1. (FIG. 15A). The binding affinities of the biparatopic constructs were determined with an ELISA assay with the periplasm (FIG. 15A). Moreover, based on their high affinity and binding to non-overlapping rPDGRB epitopes, VHHs SP26P and SP28P were selected for the design of a biparatopic VHH construct and produced in a similar way as described in example 6.1. The formed biparatopic SP28P-SP26P was conjugated to IRDye800CW (SP28P-SP26P-IRDye800CW conjugation method as described in example 9.2) and subjected to a binding assay SCC VII cells transfected with hPDGFRB, rPDGFRB or hIGF2R were performed (FIG. 15B). […] In order to create a biparatopic VHH construct which is cross-reactive for hPDGFRB and rPDGFRB, VHH SPO2P binding to hPDGFRB and VHH SPO26P binding to rPDGFRB were selected and the biparatopic construct SPO2P-SP26P was produced in a similar way as described in example 6.1. (FIG. 15C). Construct SPO2P-SP26P was conjugated to IRDye800CW (SP02P-SP26P-IRDye800CW, conjugation method as described in example 9.2) and subjected to bindings assays on SCC VII cells transfected with hPDGFRB, rPDGFRB or hIGF2R were performed (FIG. 15C). […]

hPDGFRB = target: T5, hPDGFRB (Homo sapiens, UniProt P09619); experiment: Binding assay on SCC VII cells transfected with hPDGFRB; settings: relative to rPDGFRB
T5 construct: GFP; expressed in transfected cells; host or cells: SCC VII cells
Method: as §6

T5 sequence (P09619 33-1106): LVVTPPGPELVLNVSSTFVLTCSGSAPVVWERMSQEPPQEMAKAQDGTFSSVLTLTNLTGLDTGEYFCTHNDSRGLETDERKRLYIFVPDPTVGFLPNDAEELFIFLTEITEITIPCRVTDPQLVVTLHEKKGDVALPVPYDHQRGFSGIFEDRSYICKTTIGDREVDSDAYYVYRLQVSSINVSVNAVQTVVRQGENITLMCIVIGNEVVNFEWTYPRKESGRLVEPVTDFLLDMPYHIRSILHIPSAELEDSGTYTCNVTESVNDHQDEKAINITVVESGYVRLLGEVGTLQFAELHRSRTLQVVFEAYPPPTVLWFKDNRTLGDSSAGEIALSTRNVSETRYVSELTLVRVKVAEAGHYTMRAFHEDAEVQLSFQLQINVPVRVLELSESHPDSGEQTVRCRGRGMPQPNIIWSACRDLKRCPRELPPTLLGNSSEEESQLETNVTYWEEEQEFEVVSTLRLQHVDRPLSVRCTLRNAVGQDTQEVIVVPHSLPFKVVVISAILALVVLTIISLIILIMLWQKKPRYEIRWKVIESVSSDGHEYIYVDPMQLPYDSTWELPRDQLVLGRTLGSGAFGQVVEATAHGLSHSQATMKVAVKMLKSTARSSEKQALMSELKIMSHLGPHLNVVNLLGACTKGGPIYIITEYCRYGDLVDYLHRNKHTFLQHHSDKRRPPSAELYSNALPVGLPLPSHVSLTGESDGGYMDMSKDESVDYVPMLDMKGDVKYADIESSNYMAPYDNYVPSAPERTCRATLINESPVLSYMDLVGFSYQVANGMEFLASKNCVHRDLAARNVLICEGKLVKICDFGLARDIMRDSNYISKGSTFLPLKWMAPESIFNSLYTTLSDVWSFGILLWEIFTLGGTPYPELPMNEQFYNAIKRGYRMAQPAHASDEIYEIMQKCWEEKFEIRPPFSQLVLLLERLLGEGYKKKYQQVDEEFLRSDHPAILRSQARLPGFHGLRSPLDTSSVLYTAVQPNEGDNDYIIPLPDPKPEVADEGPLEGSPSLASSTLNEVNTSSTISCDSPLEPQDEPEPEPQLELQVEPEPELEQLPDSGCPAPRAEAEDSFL
T4 sequence (Q05030 32-1097): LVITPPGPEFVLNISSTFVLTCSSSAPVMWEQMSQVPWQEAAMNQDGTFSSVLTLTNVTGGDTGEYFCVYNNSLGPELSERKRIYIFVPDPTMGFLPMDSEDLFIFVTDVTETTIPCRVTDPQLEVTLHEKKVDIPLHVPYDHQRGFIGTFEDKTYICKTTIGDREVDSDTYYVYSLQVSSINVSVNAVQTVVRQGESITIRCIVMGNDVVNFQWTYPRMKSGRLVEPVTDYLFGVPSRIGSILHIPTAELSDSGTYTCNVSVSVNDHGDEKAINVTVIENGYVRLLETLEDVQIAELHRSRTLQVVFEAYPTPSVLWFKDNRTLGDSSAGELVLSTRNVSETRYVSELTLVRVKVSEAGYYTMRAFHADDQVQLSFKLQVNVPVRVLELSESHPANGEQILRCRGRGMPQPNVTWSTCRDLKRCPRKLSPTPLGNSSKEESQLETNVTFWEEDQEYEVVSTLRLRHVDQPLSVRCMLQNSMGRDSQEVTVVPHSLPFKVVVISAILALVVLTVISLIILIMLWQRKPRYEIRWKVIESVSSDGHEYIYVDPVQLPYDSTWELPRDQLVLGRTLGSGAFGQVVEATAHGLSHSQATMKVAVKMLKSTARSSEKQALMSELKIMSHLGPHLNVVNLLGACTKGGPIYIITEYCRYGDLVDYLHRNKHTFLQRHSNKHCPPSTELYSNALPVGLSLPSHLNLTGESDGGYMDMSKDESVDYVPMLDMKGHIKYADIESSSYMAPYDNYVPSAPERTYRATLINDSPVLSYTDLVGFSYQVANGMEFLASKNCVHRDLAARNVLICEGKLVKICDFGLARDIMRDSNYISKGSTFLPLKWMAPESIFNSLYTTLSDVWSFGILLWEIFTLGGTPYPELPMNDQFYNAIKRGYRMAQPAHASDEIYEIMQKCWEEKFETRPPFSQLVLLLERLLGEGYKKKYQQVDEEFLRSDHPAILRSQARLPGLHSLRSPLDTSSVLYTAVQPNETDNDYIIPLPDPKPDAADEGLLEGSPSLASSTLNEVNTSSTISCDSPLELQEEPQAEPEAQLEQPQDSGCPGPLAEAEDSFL
T1 sequence (P09619 33-532): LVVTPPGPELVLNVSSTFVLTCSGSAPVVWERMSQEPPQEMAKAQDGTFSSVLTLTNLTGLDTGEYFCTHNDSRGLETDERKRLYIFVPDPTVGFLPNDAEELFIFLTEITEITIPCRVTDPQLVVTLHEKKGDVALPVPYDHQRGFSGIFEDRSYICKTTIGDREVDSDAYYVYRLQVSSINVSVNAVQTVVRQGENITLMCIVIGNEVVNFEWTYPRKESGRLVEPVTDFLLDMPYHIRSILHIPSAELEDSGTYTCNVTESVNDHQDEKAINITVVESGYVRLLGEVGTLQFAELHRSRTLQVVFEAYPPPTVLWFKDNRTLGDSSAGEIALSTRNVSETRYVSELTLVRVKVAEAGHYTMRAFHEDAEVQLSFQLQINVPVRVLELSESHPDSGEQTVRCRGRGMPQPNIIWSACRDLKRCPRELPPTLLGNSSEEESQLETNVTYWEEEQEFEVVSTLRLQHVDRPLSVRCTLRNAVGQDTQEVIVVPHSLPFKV

B1: SP26P: rPDGFRB binding VHH, SEQ ID NO: 153 (protein, listed as Lama glama)
VHH: EVQLVESGGGLVQAGGSLRLSCAASGRSFSSSVMGWFRQTPGKEREFVAATRWTAASTHYADSVKGRFTISRDHAENAVFLQMNSLKPEDTAVYYCAAGNYLDTAQYRYNYWGQGTQVTVSS
binding epitope competition between SPO2P and SP26P (PDGFRB ECD): No competition
Kd [1]: 5.1 nM
Kd (rat PDGFRB receptor): 0.3 nM

B2: 13F11: VHH targeting IGF2R, SEQ ID NO: 273 (protein, listed as Lama glama)
VHH: EVQLVESGGRLVQPGDSLRLSCAASGRTFSDNAMGWFRQAPGKERRFVAGISWAGGSTYYSDSVKGRFTISRDNAKNTVYLQMNSLKPEDTAVYYCAAGLRAWVQRMPKDYNYWGQGTQVTVSS
Kd (hIGF2R-ECD; construct conjugated to Alexa Fluor 647, direct read out): 1 ± 0.61 nM
Kd (hIGF2R-ECD; unconjugated VHH, one-site specific binding): 0.23 ± 0.05 nM
internalization in A549 cells [2]: no internalization was observed
internalization in hIGF2R transfected NIH 3T3 2.2 cells [3]: did internalise
internalization in mock transfected NIH 3T3 2.2 cells [4]: did not internalize

B3: FE-A-A488: 13F11-13E8-ABD conjugated to Alexa Fluor 488 (conjugate)
chain: EVQLVESGGRLVQPGDSLRLSCAASGRTFSDNAMGWFRQAPGKERRFVAGISWAGGSTYYSDSVKGRFTISRDNAKNTVYLQMNSLKPEDTAVYYCAAGLRAWVQRMPKDYNYWGQGTQVTVSSGGGGSGGGGSGGGGSEVQLVESGGGLVQAGGSLRLSCAASRSISPMGWYRQAPGKQRELVAIMPSSGPPIYADSVQGRFTISRDNAKNTVYLQMNSLKPEDTAVYYCNVGGGYWGQGTQVTVSS
modifications: left off: large carriers; small tags and cut ends
binding to activated rat HSCs [5]: binds to rat HSCs

B4: SP28P-SP26P-IRDye800CW: biparatopic SP28P-SP26P conjugated to IRDye800CW (conjugate)
chain: EVQLVESGGGLVQAGGSLRLSCAASGSIVSFNGINWYRQAPGKQREWVGGITQGGNTMYADSVRGRFTISRDNTKNTMYLQMNSLKPEDTAVYYCRRPPVASWGQGTQVTVSSGGGGSGGGGSGGGGSEVQLVESGGGLVQAGGSLRLSCAASGRSFSSSVMGWFRQTPGKEREFVAATRWTAASTHYADSVKGRFTISRDHAENAVFLQMNSLKPEDTAVYYCAAGNYLDTAQYRYNYWGQGTQVTVSS
modifications: left off: small tags and cut ends
Kd (rPDGFRB): < 1 nM
binding affinity to hPDGFRB (hPDGFRB): a few orders of magnitude lower
